Test results taken from US20240343803A1 (SHANDONG SIMCERE BIOPHARMACEUTICAL, published 2024).

T1: full-length human TIGIT on CHO-K1 cells (CHO-K1 human TIGIT) (human, UniProt Q495A1 22-244)
T1 construct: NCBI XP_024309156.1; entry includes the signal peptide; also called high expression strain 1D2; medium expression strain 2D10
T1 sequence: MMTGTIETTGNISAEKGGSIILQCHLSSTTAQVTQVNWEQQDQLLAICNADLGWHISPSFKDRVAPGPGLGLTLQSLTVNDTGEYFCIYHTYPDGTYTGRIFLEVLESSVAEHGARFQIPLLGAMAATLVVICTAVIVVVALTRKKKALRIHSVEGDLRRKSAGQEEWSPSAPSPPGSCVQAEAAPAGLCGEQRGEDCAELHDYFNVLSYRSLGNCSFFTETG

T2: human TIGIT ECD-his (fusion protein of extracellular domain of human TIGIT and His-tag) (human)
T2 construct: entry includes the signal peptide, limits not readable here
T2 chain: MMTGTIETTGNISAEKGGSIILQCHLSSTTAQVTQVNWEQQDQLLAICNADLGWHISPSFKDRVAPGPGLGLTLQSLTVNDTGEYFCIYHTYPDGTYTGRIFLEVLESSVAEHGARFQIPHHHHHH


Columns and labels:
[1] = target: T3, full-length cynomolgus monkey TIGIT on CHO-K1 cells (CHO-K1 cynomolgus monkey TIGIT) (cynomolgus monkey); assay: cell ELISA
T3 construct: NCBI XP_015300911.1; also called cynomolgus monkey TIGIT cells
Method: (§1) After discarding the culture supernatant, the cells were fixed with a cell fixation solution (Beyotime, CAT #P0098), 50 μL/well, at room temperature for 1 hour. After washing once with 0.05% Tween 20-PBS on the Microplate Washer, the plate was added with 5% skim milk powder-PBS, 250 μL/well, and incubated at 37° C. for 2-4 hours. After washing 3 times with 0.05% Tween 20-PBS on the Microplate Washer, the plate was added with purified mouse monoclonal antibodies (diluted to 13 nM with 1% BSA, diluted by 3 fold serial dilution for 12 concentration points), 50 µL/well, incubated at 37° C. for 1.5-2 hours. […] After washing 3 times with 0.05% Tween 20-PBS on the Microplate Washer, the plate was added with TMB chromogenic solution (KPL, CAT #52-00-03), 50 μL/well, and incubated at 37° C. for 10 minutes. 1M HCL, 50 μL/well, was then added into the plate to terminate the reaction, and the OD450 nm was read by a microplate reader (Biotek, Powerwave HT). […] (c) The effect of anti-TIGIT mouse monoclonal antibodies blocking the interaction between Bio-CD155-His and CHO-K1 human TIGIT detected by FACS

[2] = target: T4, cynomolgus monkey TIGIT ECD-hFc (extracellular domain of cynomolgus monkey TIGIT and human IgG1 Fc fragment) (cynomolgus monkey); assay: ELISA
T4 construct: entry includes the signal peptide, limits not readable here; also called cynomolgus monkey TIGIT-hFc

[3] = target: T5, human TIGIT ECD-hFc (fusion protein of extracellular domain of human TIGIT and human IgG1 Fc fragment) (human); assay: ELISA
T5 construct: entry includes the signal peptide, limits not readable here

[4] = target: T1, full-length human TIGIT on CHO-K1 cells …; assay: cell ELISA, low expression strain
Method: as §1

[5] = target: T1, full-length human TIGIT on CHO-K1 cells …; assay: FACS, competition: Bio-CD155-His to CHO-K1 human TIGIT
Method: The collected cells were washed once with PBS (Hyclone, CAT #SH30256), resuspended to 2×10⁵/40 μL with 1% BSA-PBS. The antibodies were diluted to 210 nM with 1% BSA-PBS (diluted by 3-fold serial dilution for 12 concentration points). […] The 40 μL cells were then mixed with 40 μL diluted antibodies and 40 μL diluted Bio-CD155-His, and then incubated at 4° C. for 60 minutes. The cells were washed twice with PBS, resuspended with APC labeled streptavidin (dilution ratio 1:1700, Biolegend, 405243), 100 μL/well, and incubated at 4° C. for 40 minutes. The cell samples were washed twice with PBS, resuspended with 1% BSA-PBS, 100 μL/well and then analyzed by flow cytometry (BD, Canto II). […] (d) The effect of anti-TIGIT mouse monoclonal antibodies blocking the interaction between human TIGIT and CHO-K1 CD155 detected by ELISA

[6] = target: T1, full-length human TIGIT on CHO-K1 cells …; assay: cell ELISA, high expression strain
Method: as §1

[7] = target: T1, full-length human TIGIT on CHO-K1 cells …; assay: cell ELISA, medium expression strain
Method: as §1

[8] = target: T5, human TIGIT ECD-hFc (fusion protein of …); assay: cell ELISA, competition: hTIGIT ECD-hFc to CHO-K1 CD155
Method: After discarding the culture supernatant, the cells were fixed with a cell fixation solution (Beyotime, CAT #P0098), 50 μL/well, at room temperature for 1 hour. After washing once with 0.05% Tween 20-PBS on the Microplate Washer, the plate was added with 5% skim milk powder-PBS, 250 μL/well, and incubated at 37° C. for 2-4 hours. The plate was then washed 3 times with 0.05% Tween 20-PBS on the Microplate Washer. The mouse monoclonal antibodies were mixed with human TIGIT ECD-hFc (working concentration: 30 ng/mL) and incubated for 0.5 hour. The mixed solution of antigen and antibody was added to the cell plate (50 μL/well). The cells were incubated at 37° C. for 1.5-2 hours and then washed with 0.05% Tween 20-PBS for 3 times on the Microplate Washer. The cell plate was then added with 50 μL/well HRP enzyme-labeled antibodies (Merck, CAT #AP113P) diluted with 1% BSA (Sangon Biotech, CAT #A500023-0100)-PBS at a dilution ratio of 1:5000 and incubated at 37° C. for 1 hour. After washing 3 times with 0.05% Tween 20-PBS on the Microplate Washer, the plate was added with TMB chromogenic solution (KPL, CAT #52-00-03), 50 μL/well, and incubated at 37° C. for 10 minutes. 1M HCL, 50 μL/well, was then added into the plate to terminate the reaction, and the OD450 nm was read by a microplate reader (Biotek, Powerwave HT).

[9] = target: T2, human TIGIT ECD-his (fusion protein of …); assay: BIAcore kinetics

EC50 [1] [nM]	EC50 [2] [nM]	EC50 [3] [nM]	EC50 [4] [nM]	IC50 [5] [nM]	EC50 [6] [nM]	EC50 [7] [nM]	IC50 [8] [nM]	Kd [9] [nM]	koff [9] [s⁻¹]	kon [9] [M⁻¹ s⁻¹]	Binder
0.11	0.017	0.0171	0.273	0.204	0.312	0.316	0.141	0.0476	8.08e-05	1.7e+06	TIGIT-F2-002 (antibody, V domains shown, mouse hybridoma antibody; variable domains are those printed for the chimeric TIGIT-CHI-002 built from the mouse antibody; tie rests on the number 002 only; also called mouse antibody TIGIT-002) VH: EVQLQESGPGLAKPSQTLSLACSVTGYSITSDSWNWIRKFPGNKLEYMGYISYSGNTYYNPSLKSRISITRDTSKNQFYLQLNSVTTEDTATYYCARLDFSNYGGAVDYWGQGTSVTVSS VL: DIVMTQSHTFMSTSVGDRVSITCKASQNVRTAVAWYQQKPGQSPKLMIYSASYRYTGVPDRFTGSGSGTDFTFTISSVQAEDLAVYYCQQYYTTPWTFGGGAKLEIQ
0.0616	0.0327	0.0208	0.32	0.215	0.48	0.54	0.15	0.0414	3.32e-05	800000	TIGIT-F2-006 (antibody, V domains shown, mouse hybridoma antibody; variable domains as printed for TIGIT-CHI-006; tie rests on the number 006 only; also called mouse antibody TIGIT-006) VH: EVQLQESGPGLAKPSQTPSLTCSVTGYSMTSDYWNWIRKFPGNKLEYMGYISYSGRTYYNPSLKSRISITRDTSKNQFYLQLNSVTTEDTATYYCARGDYSNYGGAMYDWGQGTSVTVSS VL: DIVMTQSHKFMSTSVGDRVSITCRASQGVSTTIAWYQQKPGQSPKLLIYSASYRYTGVPDRFTGSGSGTDFTFTISGVQAEDLAVYYCQQYYSSPFTFGGGTKLEIK
0.0274	0.0043	0.0039	0.375	0.34	0.613	0.664	0.136	0.155	0.000117	755000	TIGIT-F5-070 (antibody, V domains shown, mouse hybridoma antibody; variable domains as printed for TIGIT-CHI-070; tie rests on the number 070 only; also called mouse antibody TIGIT-070) VH: QVQLQQPGTELVKPGASVKLSCRASGYTFTNYYMHWVKQRPGRGLEWIGRIDPDSGGSKYNEKFKSKATLTVDKLSSTAYMQLSSLTSEDSAVYYCAREGHYGFYSDYWGQGTTLTVSS VL: DIQMTQSPASLSASVGETVTITCRVSENIYSYLAWYQQKQGKSPQLLVYNAKTLAEGVPSRFSGSGSGTQFSLKINSLQPEDFGNYYCQHHYGNPLTFGAGTKLDLK
0.0778	0.0147	0.015	0.231	0.174	0.388	0.386	0.133	0.0333	4.47e-05	1.34e+06	TIGIT-F2-005 (antibody, V domains shown, mouse hybridoma antibody; variable domains as printed for TIGIT-CHI-005; tie rests on the number 005 only; also called mouse antibody TIGIT-005) VH: QVQLQQSGAELVRPGTSVKVSCKASGYAFTNYLIEWVKQRPGQGLEWIGVINPGSGGTNYKEKFKGKATLTADKSSSTAYMQLSSLTSEDSAVYFCARGEYFFFDYWGQGTTLTVSS VL: DIVMTQSHKFMSTSVGDRVSITCKASQHVSNGVAWYQHKPGQSPKLLIYSASYRYTGVPDRFTGTGSGTDFTFTISSVQAEDLAVYYCQQHYNTPHTFGGGTKLEIK
0.0791	0.0152	0.0108	0.672	0.449	1.05	0.984	0.212	0.211	0.000141	669000	RG6058-mIgG2a (antibody, V domains shown, mouse IgG2a format by its name; also called Roche RG6058; control antibody RG6058) VH: EVQLQQSGPGLVKPSQTLSLTCAISGDSVSSNSAAWNWIRQSPSRGLEWLGKTYYRFKWYSDYAVSVKGRITINPDTSKNQFSLQLNSVTPEDTAVFYCTRESTTYDLLAGPFDYWGQGTLVTVSS VL: not shown
